*1 amine or outer side, *2 acyl side, *3 side chain or, on linkers, in order; H or OH if unused. Bridges are numbered along the chain shown (N, C = ends). [ ]: non-standard residue; d: D form. The star is where a group is joined. DOTA = O=C(O)CN1CCN(CC(=O)O)CCN(CC(=O)*)CCN(CC(=O)O)CC1; N(2-mercaptoethyl)Gly = O=C(CN(CCS[*:3])[*:1])[*:2]; Orn = NCCC[C@H](N)C(=O)O; GABA = NCCCC(=O)O
How the values were obtained:
Assay in all cases: Radioligand binding, displacement of 125I-Tyr11-SRIF-14
hSSTR-4 = molecular target: T1, hSSTR-4 (Homo sapiens, UniProt P31391); conditions: hSSTR-4
T1 construct: host or cells: Chem-1 (Rat ChemiSCREEN) cells, membrane preparation
Excerpt: (§1) The binding to human cloned receptors SSTR-1, or SSTR-2 or SSTR-3 evaluated in stable and selective transfected CHO (Chinese Hamster Ovary) cells and binding to STSR-4 and SSTR-5 in stable and selective transfected Chem-1 (Rat ChemiSCREEN) cells. […] The binding reactions were filtered, the filters were washed, and the bound radioactivity was counted using a gamma counter.
(§2) The following table depicts the conditions of binding assay to each of the somatostatin receptors used for the evaluations of binding affinities of the tested peptides. All assays were performed by quantitation method of radioligand binding under 25° C. The vehicle was 1% DMSO, the incubation buffer was 25 mM HEPES, pH 7.4, 5 mM MgCl2, 1 mM CaCl2, 0.1% BSA. […] The significance criteria were >50% of max inhibition. […] This specific binding data used for calculation of Bmax values which is the concentration of each of the expressed cloned receptor in its transfected cell system.
(§3) The Results of IC50 values were determined by a non-linear, least squares regression analysis using MathIQ™ (ID Business Solutions Ltd., UK). […] The Hill coefficient (nH), defining the slope of the competitive binding curve, was calculated using MathIQ™.

SSTR5 = SSTR5 (Homo sapiens, UniProt P35346); design: host or cells: Chem-1 (Rat ChemiSCREEN) cells, membrane preparation; conditions: hSSTR-5
Excerpt: as §1, §2, §3

SSTR1 = SSTR1 (Homo sapiens, UniProt P30872); design: host or cells: CHO (Chinese Hamster Ovary) cells, membrane preparation; conditions: hSSTR-1
Excerpt: as §1, §2, §3

SSTR2 = SSTR2 (Homo sapiens, UniProt P30874); design: host or cells: CHO (Chinese Hamster Ovary) cells, membrane preparation; conditions: hSSTR-2
Excerpt: as §1, §2, §3

SSTR3 = SSTR3 (Homo sapiens, UniProt P32745); design: host or cells: CHO (Chinese Hamster Ovary) cells, membrane preparation; conditions: for % displacement of [^125I] Tyr^11-SRIF-14: hSSTR-3; for affinity and selectivity to SSTR3 (in words): binding data
Excerpt: as §1, §2, §3

Sequence of SSTR1 (P30872 whole entry): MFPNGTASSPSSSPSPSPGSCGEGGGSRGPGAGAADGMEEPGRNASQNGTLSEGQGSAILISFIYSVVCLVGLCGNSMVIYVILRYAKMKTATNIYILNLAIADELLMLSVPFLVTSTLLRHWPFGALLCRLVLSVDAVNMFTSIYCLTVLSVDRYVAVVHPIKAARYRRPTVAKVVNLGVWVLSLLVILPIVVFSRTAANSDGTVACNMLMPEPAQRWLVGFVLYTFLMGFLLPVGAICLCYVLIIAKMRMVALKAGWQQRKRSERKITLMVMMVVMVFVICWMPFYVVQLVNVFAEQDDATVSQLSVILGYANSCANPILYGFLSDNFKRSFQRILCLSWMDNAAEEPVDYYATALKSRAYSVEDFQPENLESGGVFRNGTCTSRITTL
T1 sequence (P31391 whole entry): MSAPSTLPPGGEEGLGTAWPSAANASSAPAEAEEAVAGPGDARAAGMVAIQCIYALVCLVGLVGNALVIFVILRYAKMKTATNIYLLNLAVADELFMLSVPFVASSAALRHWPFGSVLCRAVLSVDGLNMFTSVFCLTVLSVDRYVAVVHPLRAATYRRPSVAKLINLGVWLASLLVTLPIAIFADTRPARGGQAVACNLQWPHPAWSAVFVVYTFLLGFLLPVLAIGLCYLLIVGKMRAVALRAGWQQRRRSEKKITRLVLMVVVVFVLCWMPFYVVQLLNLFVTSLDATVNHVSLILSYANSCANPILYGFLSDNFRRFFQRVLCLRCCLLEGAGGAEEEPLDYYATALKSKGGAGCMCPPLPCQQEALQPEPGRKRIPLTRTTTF
Sequence of SSTR5 (P35346 whole entry): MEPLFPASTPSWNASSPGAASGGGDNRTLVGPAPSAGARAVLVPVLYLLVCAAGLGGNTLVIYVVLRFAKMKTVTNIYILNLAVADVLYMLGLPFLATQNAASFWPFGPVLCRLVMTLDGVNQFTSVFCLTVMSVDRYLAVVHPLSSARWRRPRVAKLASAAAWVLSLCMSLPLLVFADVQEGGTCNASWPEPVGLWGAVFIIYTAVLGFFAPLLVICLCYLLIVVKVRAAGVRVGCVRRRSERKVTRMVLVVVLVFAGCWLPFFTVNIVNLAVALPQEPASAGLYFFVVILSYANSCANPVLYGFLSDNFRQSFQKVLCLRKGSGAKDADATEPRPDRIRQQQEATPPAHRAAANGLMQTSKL
Sequence of SSTR2 (P30874 whole entry): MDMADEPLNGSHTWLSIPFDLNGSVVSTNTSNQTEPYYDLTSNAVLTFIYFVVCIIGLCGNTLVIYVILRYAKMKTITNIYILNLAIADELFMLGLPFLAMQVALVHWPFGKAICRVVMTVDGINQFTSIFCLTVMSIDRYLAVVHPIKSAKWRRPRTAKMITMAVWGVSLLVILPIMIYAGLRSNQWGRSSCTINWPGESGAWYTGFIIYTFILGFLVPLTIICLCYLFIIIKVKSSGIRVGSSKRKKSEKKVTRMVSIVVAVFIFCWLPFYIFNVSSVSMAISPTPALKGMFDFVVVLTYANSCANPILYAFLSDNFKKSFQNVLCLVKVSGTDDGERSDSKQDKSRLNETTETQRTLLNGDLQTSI
Sequence of SSTR3 (P32745 whole entry): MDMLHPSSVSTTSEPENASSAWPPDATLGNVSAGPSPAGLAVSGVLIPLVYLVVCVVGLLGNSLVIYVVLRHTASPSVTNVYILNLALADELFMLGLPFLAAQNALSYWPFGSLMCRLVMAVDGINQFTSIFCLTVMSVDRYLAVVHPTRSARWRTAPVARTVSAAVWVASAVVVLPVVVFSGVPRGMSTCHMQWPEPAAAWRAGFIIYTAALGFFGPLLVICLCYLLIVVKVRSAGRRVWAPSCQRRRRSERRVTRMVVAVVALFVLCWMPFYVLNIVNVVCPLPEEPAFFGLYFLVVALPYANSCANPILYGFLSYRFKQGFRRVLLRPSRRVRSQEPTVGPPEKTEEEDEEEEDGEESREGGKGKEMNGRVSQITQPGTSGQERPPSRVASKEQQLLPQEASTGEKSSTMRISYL

Row | Substance | % displacement of [^125I] Tyr^11-SRIF-14 (hSSTR-4; at 1 nM (in brackets)) | % displacement of [^125I] Tyr^11-SRIF-14 (hSSTR-4; at 10 nM) | % displacement of [^125I] Tyr^11-SRIF-14 (SSTR5; at 1 nM (in brackets)) | % displacement of [^125I] Tyr^11-SRIF-14 (SSTR5; at 10 nM) | % displacement of [^125I] Tyr^11-SRIF-14 (SSTR1; at 1 nM (in brackets)) | % displacement of [^125I] Tyr^11-SRIF-14 (SSTR1; at 10 nM) | % displacement of [^125I] Tyr^11-SRIF-14 (SSTR2; at 1 nM (in brackets)) | % displacement of [^125I] Tyr^11-SRIF-14 (SSTR2; at 10 nM) | % displacement of [^125I] Tyr^11-SRIF-14 (SSTR3; at 1 nM (in brackets)) | % displacement of [^125I] Tyr^11-SRIF-14 (SSTR3; at 10 nM) | affinity and selectivity to SSTR3 (in words) (SSTR3)
1 | DOTA-D-Phe^1-Glu^2-Orn^3-Cys^4-Phe^5-D-Trp^6-Lys^7-Thr^8-Phe^9-NTEG^10-NH2 (cyclo 4-10) ({DOTA}-[dF]E[Orn]CF[dW]KTF[N(2-mercaptoethyl)Gly]-NH2; disulfide 4-10; SMILES C[C@@H](O)[C@@H]1NC(=O)[C@H](CCCCN)NC(=O)[C@@H](Cc2c[nH]c3ccccc23)NC(=O)[C@H](Cc2ccccc2)NC(=O)[C@@H](NC(=O)[C@H](CCCN)NC(=O)[C@H](CCC(=O)O)NC(=O)[C@@H](Cc2ccccc2)NC(=O)CN2CCN(CC(=O)O)CCN(CC(=O)O)CCN(CC(=O)O)CC2)CSSCCN(CC(N)=O)C(=O)[C@H](Cc2ccccc2)NC1=O) [SEQ ID NO: 23] | 0(0) % | 0(0) % | 0(0) % | 0(0) % | 4% | 6% | 0(0) % | 0(0) % | 19% | 56% | –
2 | DOTA-D-Phe^1-Orn^2-Cys^3-Phe^4-D-Trp^5-Lys^6-Thr^7-Phe^8-NTEG^9-NH2 cyclo 3-9 [SEQ ID NO: 21] | 9(9) % | 9(9) % | 0(0) % | 0(0) % | 23% | 22% | 0% | 2% | 59% | 93% | did not interfere with the affinity and selectivity to SSTR3
3 | DOTA-Gly^1-D-Phe^2-Arg^3-Cys^4-Phe^5-D-Trp^6-Lys^7-Thr^8-Phe^9-NTEG^10-NH2 (cyclo 4-10) ({DOTA}-G[dF]RCF[dW]KTF[N(2-mercaptoethyl)Gly]-NH2; disulfide 4-10; SMILES C[C@@H](O)[C@@H]1NC(=O)[C@H](CCCCN)NC(=O)[C@@H](Cc2c[nH]c3ccccc23)NC(=O)[C@H](Cc2ccccc2)NC(=O)[C@@H](NC(=O)[C@H](CCCNC(=N)N)NC(=O)[C@@H](Cc2ccccc2)NC(=O)CNC(=O)CN2CCN(CC(=O)O)CCN(CC(=O)O)CCN(CC(=O)O)CC2)CSSCCN(CC(N)=O)C(=O)[C@H](Cc2ccccc2)NC1=O) [SEQ ID NO: 11] | 0(0) % | 0(0) % | 0(0) % | 0(0) % | 2% | 19% | 0(0) % | 0(0) % | 47% | 88% | –
4 | DOTA-Lys^1-D-Phe^2-Arg^3-Gly^4-Asp^5-Glu^6-GABA-D-Phe^7-Lys^8-Cys^9-Phe^10-D-Trp^11-Lys^12- Thr^13-Phe^14-NTEG^15-NH2 (cyclo 1-6; cyclo 9-15) ({DOTA}-K[dF]RGDE[GABA][dF]KCF[dW]KTF[N(2-mercaptoethyl)Gly]-NH2; lactam 1-6; disulfide 10-16; not fully specified; printed as DOTA-Lys1-D-Phe2-Arg3-Gly4-Asp5-Glu6-GABA-D-Phe7-Lys8-Cys9-Phe10-D-Trp11-Lys12- Thr13-Phe14-NTEG15-NH2 (cyclo 1-6, cyclo 9-15); numbers in words are those of the source; also: cyclo 1-6 listed as disulfide between Lys1 and Glu6) [SEQ ID NO: 17] | 7% | 5% | 15% | 13% | 9% | 15% | 11% | 8% | 68% | 91% | –
5 | DOTA-Phe^1-D-Phe^2-Arg^3-(Cys^4-Phe^5-D-Trp^6-Lys^7-Thr^8-Phe^9-NTEG^10)-NH2 (cyclo 4-10) ({DOTA}-F[dF]RCF[dW]KTF[N(2-mercaptoethyl)Gly]-NH2; disulfide 4-10; SMILES C[C@@H](O)[C@@H]1NC(=O)[C@H](CCCCN)NC(=O)[C@@H](Cc2c[nH]c3ccccc23)NC(=O)[C@H](Cc2ccccc2)NC(=O)[C@@H](NC(=O)[C@H](CCCNC(=N)N)NC(=O)[C@@H](Cc2ccccc2)NC(=O)[C@H](Cc2ccccc2)NC(=O)CN2CCN(CC(=O)O)CCN(CC(=O)O)CCN(CC(=O)O)CC2)CSSCCN(CC(N)=O)C(=O)[C@H](Cc2ccccc2)NC1=O) [SEQ ID NO: 20] | 0(0) % | 0(0) % | 0(0) % | 0(0) % | 8% | 14% | 0% | 2% | 66% | 95% | –
6 | H-Arg^1-Gly^2-Asp^3-D-Phe^4-Arg^5-Cys^6-Phe^7-D-Trp^8-Lys^9-Thr^10-Phe^11 -NTEG^12-NH^2 (cyclo 6-12) (H-RGD[dF]RCF[dW]KTF[N(2-mercaptoethyl)Gly]-NH2; disulfide 6-12; SMILES C[C@@H](O)[C@@H]1NC(=O)[C@H](CCCCN)NC(=O)[C@@H](Cc2c[nH]c3ccccc23)NC(=O)[C@H](Cc2ccccc2)NC(=O)[C@@H](NC(=O)[C@H](CCCNC(=N)N)NC(=O)[C@@H](Cc2ccccc2)NC(=O)[C@H](CC(=O)O)NC(=O)CNC(=O)[C@@H](N)CCCNC(=N)N)CSSCCN(CC(N)=O)C(=O)[C@H](Cc2ccccc2)NC1=O) [SEQ ID NO: 13] | 0(0) % | 0(0) % | 0% | 4% | 9% | 15% | 0% | 12% | 36% | 78% | did not interfere with the affinity and selectivity of SEQ ID NO: 3 to SSTR3
7 | H-Phe^1-Arg^2-Cys^3-Phe^4-D-Trp^5-Lys^6-Thr^7-Tyr^8-NTEG^9-NH2 (cyclo 3-9) (H-XRCF[dW]KTY[N(2-mercaptoethyl)Gly]-NH2; disulfide 3-9; not fully specified (residue 1); printed as H-Phe1-Arg2-Cys3-Phe4-D-Trp5-Lys6-Thr7-Tyr8-NTEG9-NH2 (cyclo 3-9)) [SEQ ID NO: 26] | 0(0) % | 0(0) % | 0% | 1% | 0% | 24% | 0(0) % | 0(0) % | 53% | 86% | –
